B1: ZNF511 (parent)
chain: YEHHYHTLHGNVCSFCKRAFPSGH
B2: ZER1 (parent)
chain: PILRLLPQGISPVSQHWATWALYN

Variants of: B1
Assay: protein stability index of a GFP-peptide fusion (GPS, HEK-293T) (PSI 1-6); higher = more stable
Conditions: c terminus: a fixed tail appended
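Also: lentivirally expressed fusions sorted by FACS into six bins by GFP to DsRed ratio, PSI derived from sequencing read proportions per bin multiplied by bin number.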

Protein stability index of substitutions, site by site:
G23: E 1.86; H 1.38; M 1.92; D 2.31; I 1.86; V 1.61; T 2.16; K 2.01; A 2.1; Q 1.93; N 2.51; C 2.33; L 1.63; S 2.7; R 1.98; W 1.62; Y 1.97; P 2.27; F 1.83
S14: G 1.88; W 2.53; Q 2.88; H 2.31; M 2.3; K 2.3; R 2.87; N 2.57; I 2.53; V 1.38; T 2.23; P 3.3; L 2.04; Y 3.38
H24: E 2.57; K 1.57; Q 2.08; M 2.17; L 2.02; F 2.5; D 2.35; G 2.09; I 1.78; C 2.07; W 2.43; P 2.08; N 2.39; Y 1.65; R 2.08; A 2.13; T 2.24; V 2.25; S 2.46
F20: M 2.38; V 2.58; G 2.82; H 3.37; Y 2.25; I 2.23; L 2.27; C 2.55; K 2.64; P 2.34; D 3.27; R 2.12; E 2.4; A 2.41; N 3.13; W 2.42; T 2.68; Q 2.37; S 2.96
A19: M 2.29; R 2.37; L 2.36; C 2.19; E 2.13; D 2.42; H 2.85; W 2.25; Y 2.25; F 2.84; S 2.28; Q 1.47; N 2.37; G 1.96; K 2.11; V 1.99; P 1.89; I 1.85; T 2.29
C16: M 2.01; A 2.05; R 2.17; D 2.17; P 2.02; H 1.82; G 2; E 2.5; K 2.35; Q 2.26; W 1.62; F 1.99; S 1.71; T 2.4; L 2.1; N 2.12; V 2.14; I 1.86; Y 2.09
F15: P 2.01; M 2.54; K 2.21; H 2.39; Q 3.25; T 2.99; S 2.39; C 3.02; Y 2.31; D 2.48; V 2; E 2.79; N 2.72; A 2.76; W 2.96; G 2.93; I 2.38; L 2.32; R 2.35
S22: N 3.01; P 2.67; E 2.44; T 2.27; K 1.8; F 2.15; R 2.03; L 2.87; A 2.08; V 1.84; G 2.02; Y 1.7; Q 1.45; H 2.99; D 2.33; W 1.47; C 2.69; I 2.24; M 2.89
K17: P 1.78; N 2.18; Q 2.41; V 1.87; R 2.2; C 1.89; F 1.84; M 1.77; E 2.59; G 2.61; H 2.18; T 2.02; A 2.23; D 2.5; S 2.22; Y 1.77; L 2.4; W 1.3; I 1.84
P21: M 2.57; H 2.32; S 2.48; T 2.38; F 2.13; K 1.9; Q 1.97; E 2.2; V 2.34; W 1.61; C 3.6; N 1.97; I 2.29; A 2.6; R 1.91; D 2.88; L 2.36; Y 1.77; G 2.31
R18: C 1.89; S 2.26; Q 1.53; P 2.87; W 1.79; K 2.23; A 2.06; V 1.73; F 1.94; G 2.27; D 2.46; E 2.14; M 1.96; I 1.6; L 2.17; H 2.29; N 2.37; Y 2.24; T 2.29

Variants of: B2
Assay: as above
Conditions: c terminus: a fixed tail appended

Protein stability index: each site, then its substitutions
Q8: W 3.15; H 1.5; Y 2.12; K 2.29; R 3.32; F 2.58
I2: D 2.52; E 2.45; H 1.17; C 2.98; R 3.12; N 1.5; A 2.46; P 3.08; T 2.92; K 2.04; Q 1.26
G9: H 5.34; K 3.57; F 2.78; N 2.01; T 2.8; I 2.95; S 2.01; Q 1.97
L3: E 1.36; P 1.04; H 1.75; Y 1.06; Q 1.62; A 3.7; D 3.05; G 1.44; N 2.54; W 1.02; V 1.78; T 2.52; I 1.5; R 1.95
V13: N 1.8; T 3.01; L 2.34; C 2.48; G 1.87; S 2.54; W 1.54; F 1.88; D 2.84; A 4.06; I 1.68
I10: E 3.31; L 2.61; D 1.76; M 3.55; N 2.41; H 2.79
L6: C 2.88; Q 1.46; E 2.53; P 2.83; Y 2.65; R 3.26; D 2.56; F 3.51
P7: F 2.8; E 3.19; T 3.41; H 5.21; W 1.97; C 2.12; M 3.56; D 2.52; A 2.22; V 1.65; R 1.55
P12: A 2.33; Y 3.44; I 3.2; H 3.2; Q 3.42; K 2.87; N 1.85; F 3.32; V 2.1
L5: T 1.14; N 1.99; A 1.65; K 1.25; D 2.04; M 3.4; F 2.22; V 3.75; G 3.62; C 3.09; Y 1.77; Q 1.95; R 1.84; H 2.07
S11: E 3.05; V 2.22; R 3.06; D 3.26; W 1.59; G 2.17; M 1.99; C 3.31; P 1.77; L 2.53; A 2.83; H 2.03; I 2.53
P1: R 2; K 2.4; T 2.19; F 3.24; A 5.68; S 2.07; H 2.39
R4: S 2.24; N 2.38; I 3.46; F 4.37; Y 3.25; L 1.38; T 3.54; Q 1.4; V 2.42; W 2.54; K 3.47; H 2.46

— the supplement of paper PMC10567573
